From the nanobody polyreactivity screen of Harvey et al. (2022) come the findings set out here.

The data set in a line: yeast display, Sf9 membrane polyspecificity reagent, FACS + sequencing; frameworks hold sequencing errors. Put shortly:
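Nanobodies from a synthetic yeast display library (Saccharomyces cerevisiae BJ5465), induced 36–48 hours with galactose, were stained 1 hour at 4 °C with 10% biotinylated, detergent-solubilized Sf9 membrane reagent, enriched on streptavidin microbeads, then FACS-sorted. Anti-HA (expression) and streptavidin (reagent binding) fluorescence set low and high (top ~1%) gates. Polyreactivity labels come from the gate of origin. Genes were colony-PCR amplified, MiSeq 2 × 250 sequenced and filtered by CDR length.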
“QVQLVESGGGLVQAGGSLRLSCAASGPTFFYYAMGWYRQAPGKERELVAAIRRSGGRTRYADSVKGRFTISRDNAKNTVYLQMNSLKPEDTAVYYCAADDGTHRRGYDYWGQGTQVTVSS”: the “polyreactivity (PSR sort gate)” value is on record as “low polyreactivity”.
Turning to “QVQLVESGGGLVQAGGSLRLSCAASGRTYKYYAMGWYRQAPGKERELVAAISRGGSTNYADSVKGRFTISRDNAKKTVYLQVNSLKPEDTAVYYCARRYIVQSGDDYWGQGTQVSVSS”, the “polyreactivity (PSR sort gate)” value was “low polyreactivity”.
Next, “QVQLVDSGGGLVQAGGSLRLSCAASGSILAGNVMGWYRQAPGKERELVASITFRGSRTYYADSVKGRFTISRDNAKNTVYLQMNSLKPEDTAVYYCNADVWASGSRGEGYWGQGTQVTVSS”: “low polyreactivity”; “QVQLVESGGGLVQAGGSLRLSCAASGFIFDGYAMGWYSQAPGKERELVAAIDSGGDRTYYADSVKGRFTISRDNAKNTVYLQMNSLKPEDTAVYYCAADSSDPTGYDYWGQGTQVTVSS”: “low polyreactivity”; “QVQLVESGGGLVQAGGSLRLSCAASGFTFASNDMGWYRQAPGKERELVASITKGGGRTYYADSVKGRFTISRDNAKNTVYLQMNSLKPEDTAVFYCAARQLIKYDYWGQGTQVTVSS”: “low polyreactivity”.
As for “QVQLVESGGGLVQAGGSLRLSCAASGRIFAYYTMGWYRQAPGKERELVAAITKRGGSTYYADSVKGRFTISRDNAKNTVYLQMNSLKPEDTAVYYCAADPHRYRYRSPHDYWGQGTQVTVSS”, the “polyreactivity (PSR sort gate)” value was “high polyreactivity”.
Turning to “QVQLVESGGGLVQAGGILRLSWAASGSTFTAYAMGWYRQAPGKERELVAAINTSGGNTYYADSVKGRFTISRDNAKNTVYFQMNSLKPEDTAVYYCAADYKARYSEKFDYWGQGTQVSVSS”, the “polyreactivity (PSR sort gate)” value is listed as “low polyreactivity”.
As to “QVQLVESGGGLVQAGRSLRLSCAASGRIFRGYAMGWYRPAPGIERELVAAISWSGGSTNYADSVKGRFTISRDNAKNSVYLQMNSLKPEDTEVYYCAARAYRVANAGYTYWGQGTQLTVSS”, the “polyreactivity (PSR sort gate)” value is “high polyreactivity”.
As to “QVQLVESGGGLVQAGGSLRLSCAASGSTFYDYAMGWSRQAPGKERELVAAINGNGDSTYYADSVKGRFTISRDNAKITVYLLMNSLKPEDTAVYDCAAYLGWGYDYWGQGTQVTVSS”, the “polyreactivity (PSR sort gate)” value was “low polyreactivity”.
In the case of “QVQLVESGGGLVQAGGSLRLSCAASGSTIIYYAMGWYRQAPGKESELVATISTSGTSTYYADSVKGRFTISRDNAKNTVYLQMNSLKPEDTAVYYCNAVHRNWRQKFDYWGQGTQVTVSS”, the “polyreactivity (PSR sort gate)” value is listed as “high polyreactivity”.
On to “QVQLVESGGGLVQAGGSLRLSCAASGSTFTTYVMGWYRQAPGKERELVAAISRRGGRTYYADSVKGRFTISRDNAKNTVYLQMNSLKPEDTAVYYCNKVYPTYYYYRGGPTEYDYWGQGTQVTVSS”, for which the “polyreactivity (PSR sort gate)” value is “high polyreactivity”.
With “QVQLVESGGGLVQAGGSLRLSCAASGSNFYSYAMGWYRQAPGKESELVAAITKSSGSTYYAASVKGRFTISRDYAKNTVYLQMNSLKPEDTAVYYCAATRYRPVRLYYWGQGTQVTVSS”, the “polyreactivity (PSR sort gate)” value is “high polyreactivity”.
Regarding “QVQLVESGGGLVQAGGSLRLSCAASGIIFLDYVMGWYRQAPGKERELVAAINSGGSTYYADSVKGRFTISRDNAKNTVYLQMNSLKPEDTAVYYCAADDYYKFDYWGQGTQVTVSS”, the “polyreactivity (PSR sort gate)” value was “low polyreactivity”.
In the case of “QVQLVESWGGLVQAGCSLRISCAASGSTLYSYAMGWNIQAPGKERELVAAINSGSNTYYADSVKGRFTISRDNAKNTVYLQMNSLKPEDTAVYYCAAKGIIYTGYDGARRAYGYWGQGTQVTVSS”, the “polyreactivity (PSR sort gate)” value is listed as “high polyreactivity”.
In the case of “QVQLVESGGGLVQAGGSLRLSCAASGFTFYSYAMGWNRQAPGKERELVAAISGGGGSTYYADSVKGRFTISRDNAKNTVYLQMNSLKPEDTAVYYCAKRPAYRGYGLGYYWGQGTQVTVSS”, the “polyreactivity (PSR sort gate)” value is recorded as “high polyreactivity”.
Next, “QVQLVESGGGLVQAGGSLRLSCAASGITSWYYAMGWYRQAPGKERELVAAITSDGRTNYADSVKGRFTISRDNAKNTVYLQMNSLKPEDTAVYYCAAARRVGVSHYRYGYWGQGTQVTVSS”: “high polyreactivity”; “QVQLVESGGGLVQAGGSLRLSCAASGFTFLIYAMGWYRQAPGKERELVAAITWRGSGTYYADSVKGRFTLSRDNAKNTVYLQMNSLKPEDTAVYYCAARTARRTFDYWGQGTQVTVSS”: “low polyreactivity”.
To “QVQLQESGVGLVQAGGSLRLSCAASGYITARDAMVWYRQAPGKEREFVATIASGTTTYYADSVKGSFTISRDNEENTVYLQTNSLKPEDTAVYYCAAPTIQIYPFYYWGQGTQVTVSS” belongs “high polyreactivity”; to “QVQLVESGGGLVQAGGSLRLSCAASGITFYFYAMGWYRQAPGKERELVAAITSTGTSTYYADSVKGRFTISRDNAKNTVYLQMNSLKPEDSAVYYCAKDQHYPHYQPYWSRYDYWGQGTQVTVSS”, “low polyreactivity”.
Next, “QVQLVESGGGLVQAGGSLRLSCAASGYIFVVNAMGWYRQAPGKERELVAAIDWGGGSTYADSVKGRFTISRDNAKNTVYLQMYSLKPEDTAVYYCAADLWPYPNDYWGQGTQVTVSS”: “low polyreactivity”.
Consider “QVQLVESGGGLVQAGGSLRLSCAASGRTFYYYAMGWYRQAPGKERELVAGITATGSSTYYADSVKGRFTISRDNAKYTVYLQMNSLKPEDTAVYYCAADGYRIDVYHADYRYDYWGQGTQVTVSS”, for which the “polyreactivity (PSR sort gate)” value was “low polyreactivity”.
In the case of “QVQLVESGGGLVQAGGSLRLSCAASGRIFRYYAMGWYRQAPGKERELVASITSGARTSYADSVKGRFTISRDNAKNTVYLQMNSLKPEDTAVYYCAPGYSYSPGRMGYWGQGTQVTVSS”, the “polyreactivity (PSR sort gate)” value is “high polyreactivity”.
As for “QVQLVESGGGLVHAGGSLRLSCAASGYTFPLYAMGWYRQAPGKERELVADINIGGASTYYADSVKGRFTISRDNAKNTVYLQMNSLKPEDTAVYYCAKEYYDGYFPTFDYDYWGQGTQVTVSS”, the “polyreactivity (PSR sort gate)” value is given as “low polyreactivity”.
Turning to “QVQLVESGGGLVQAGGSLRLSCAASGSIFRDNAMGWYRQAPGKERELVASIRSSGGRTYYADSVKGRFTISRDNANNTVYLQMNSLKPEDTAVYYCAADWIYAPWYYQESVEYYYWGQGTQVTVSS”, the “polyreactivity (PSR sort gate)” value is reported as “low polyreactivity”.
Take “QVQLVESGGGLVQAGGSLRLTCAASGRTFRSYAMGWYRQAPGKERELVAAISDGGSTNYADSVKGRFTISRDNAKNTVYLQMNSLKPEDTAVYYCAAEIFFAVFRFYYWGQGTQVTVSS”: the “polyreactivity (PSR sort gate)” value is reported as “low polyreactivity”.
For the sequence “QVQLVESGGGLVQAGGSLRLSCAASGRIFTWYAMGWYRQAPGKERELVAAISWSGGRTYYADSVKGRFTISRDYSKNTVYLQMNSLKPEVTAVYYCAAREPGRTLDYLGQGTQVTVSS”, the “polyreactivity (PSR sort gate)” value is listed as “high polyreactivity”.
Next, “QVQLVESGGGLVQAGGSLRLSCAASGRIFPVYVMGSYREAPGKEREFVASISWRGGSTFYADSVKGRFTISRDNAKNTVYLQMNSLKPEDTAVYYCAADYWSSDSSRGTMYYWGQGTQVTVSS”: “low polyreactivity”.
To “HVQLVESGGGLVQAGGSLRLSCAASGFTFRRNAMGWYRQSPGKERELVASITQRGGSTYYADSVKGRFTISRDNAKNTVYLQMNSLKPADTAVYDCNARSWDSFHPHDYWGQGTLVTVSS” belongs “high polyreactivity”; to “QVQLVESGGGLVQAGGSLSLSCAASGRIFGRYAMGWYRQAPGTERVLVAVISSGGSKYYADSVKGRFTISRDNAKNTVYLQMNSLKPEDTAVYYCAAVNRRGYDYWGQGTQVTVSS”, “low polyreactivity”.
As to “QVQLVESGGGLVQAGGSLRLSCAASGSTFKYYAMGWYRQAPGKERELVASITRTGSSTYYADSVKGRFTISRDNAKNTVYLQMNSLKPEDTAVYFCNTGPHSVWWHYGYDYWGQGTQVTVSS”, the “polyreactivity (PSR sort gate)” value was “high polyreactivity”.
